Assay results published in publication PMC9371921, “Strand annealing and motor driven activities of SMARCAL1 and ZRANB3 are stimulated by RAD51 and the paralog complex” (Nucleic Acids Research, 2022).

Molecular target: the molecule itself
Experiment: mass photometry; 2 μl (50 nM) protein solution added into 18 μl protein elution buffer; movie recorded for 1 min; Refeyn 2MP mass photometer, NativeMark size marker

B1: RAD51 paralog complex RAD51B-RAD51C-RAD51D-XRCC2 (BCDX2) (complex, human)
chain 1: MGSKKLKRVGLSQELCDRLSRHQILTCQDFLCLSPLELMKVTGLSYRGVHELLCMVSRACAPKMQTAYGIKAQRSADFSPAFLSTTLSALDEALHGGVACGSLTEITGPPGCGKTQFCIMMSILATLPTNMGGLEGAVVYIDTESAFSAERLVEIAESRFPRYFNTEEKLLLTSSKVHLYRELTCDEVLQRIESLEEEIISKGIKLVILDSVASVVRKEFDAQLQGNLKERNKFLAREASSLKYLAEEFSIPVILTNQITTHLSGALASQADLVSPADDLSLSEGTSGSSCVIAALGNTWSHSVNTRLILQYLDSERRQILIAKSPLAPFTSFVYTIKEEGLVLQETTFCSVTQAELNWAPEILPPQPPEQLGLQMCHHTQLIF
chain 2: MRGKTFRFEMQRDLVSFPLSPAVRVKLVSAGFQTAEELLEVKPSELSKEVGISKAEALETLQIIRRECLTNKPRYAGTSESHKKCTALELLEQEHTQGFIITFCSALDDILGGGVPLMKTTEICGAPGVGKTQLCMQLAVDVQIPECFGGVAGEAVFIDTEGSFMVDRVVDLATACIQHLQLIAEKHKGEEHRKALEDFTLDNILSHIYYFRCRDYTELLAQVYLLPDFLSEHSKVRLVIVDGIAFPFRHDLDDLSLRTRLLNGLAQQMISLANNHRLAVILTNQMTTKIDRNQALLVPALGESWGHAATIRLIFHWDRKQRLATLYKSPSQKECTVLFQIKPQGFRDTVVTSACSLQTEGSLSTRKRSRDPEEEL
chain 3: MGVLRVGLCPGLTEEMIQLLRSHRIKTVVDLVSADLEEVAQKCGLSYKALVALRRVLLAQFSAFPVNGADLYEELKTSTAILSTGIGSLDKLLDAGLYTGEVTEIVGGPGSGKTQVCLCMAANVAHGLQQNVLYVDSNGGLTASRLLQLLQAKTQDEEEQAEALRRIQVVHAFDIFQMLDVLQELRGTVAQQVTGSSGTVKVVVVDSVTAVVSPLLGGQQREGLALMMQLARELKTLARDLGMAVVVTNHITRDRDSGRLKPALGRSWSFVPSTRILLDTIEGAGASGGRRMACLAKSSRQPTGFQEMVDIGTWGTSEQSATLQGDQT
chain 4: MCSAFHRAESGTELLARLEGRSSLKEIEPNLFADEDSPVHGDILEFHGPEGTGKTEMLYHLTARCILPKSEGGLEVEVLFIDTDYHFDMLRLVTILEHRLSQSSEEIIKYCLGRFFLVYCSSSTHLLLTLYSLESMFCSHPSLCLLILDSLSAFYWIDRVNGGESVNLQESTLRKCSQCLEKLVNDYRLVLFATTQTIMQKASSSSEEPSHASRRLCDVDIDYRPYLCKAWQQLVKHRMFFSKQDDSQSSNQFSLVSRCLKSNSLKKHFFIIGESGVEFC
notes: human RAD51B, codon-optimized for Sf9, from pFB-FLAG-RAD51Bco-10xHis-RAD51Cco; human RAD51C, codon-optimized for Sf9, from pFB-FLAG-RAD51Bco-10xHis-RAD51Cco; Expressed as a heterotetramer; by mass photometry the preparation was consistent with a dimer of the heterotetramer; also called BCDX2 complex; FLAG-BCDX2 complex; source: Sf9, co-infected with two baculoviruses, purified (Ni-NTA, then …)
stoichiometry N: 2
